These are literature values, as cited in article PMC2883863.

One may read the pKa as the pH at which an ionisable group is half protonated.

The series addresses Cys36 (UniProt position 73, FWTPWCPFCNA). Conditions: not stated (quoted literature value for Mtb DsbE).

Consider “Disulfide bond forming protein DsbE (Mtb DsbE, Rv2878c, MPT53) (Mycobacterium tuberculosis)”, for which the pKa is on record as 5.35 ± 0.2.
